{"source": "paper PMC8568920", "about": "(2021)", "binders": {"B1": {"name": "recombinant human apolipoprotein A-I ∆NM variant (domain or fragment)", "chain": "PVTQEFWDNLEKETEGLRQEMSKDLEEVKAKVQPYLDDFQKKWQEEMELYRQKVEPLRAELQEGARQKLHELQEKLSPLGTHLAPYSDELRQRLAARLEALKENGGARLAEYHAKATEHLSTLSEKAKPALEDLRQGLLPVLESFKVSFLSALEEYTKKLNTQ"}}, "molecular_target": "biotinylated lysocin E derivative, natural type (biotin (position not given); fatty acid chain moiety)", "assay": "BLI"}
{"binder": "B1", "values": [{"measurement": "Kd", "result": 5.6, "unit": "µM"}]}
